In US20230365648A1 (published 2023):
Like-named read-outs stand apart in the source and are kept apart here.

T1: Cyno monkey CD47 (Cyno monkey, UniProt A0A2K5X523 19-139)
T1 chain: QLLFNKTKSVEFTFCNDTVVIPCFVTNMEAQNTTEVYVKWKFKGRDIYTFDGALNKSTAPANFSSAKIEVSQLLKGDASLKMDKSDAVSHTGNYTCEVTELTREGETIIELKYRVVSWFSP

T2: mouse CD47 (mouse, UniProt Q61735 19-140)
T2 chain: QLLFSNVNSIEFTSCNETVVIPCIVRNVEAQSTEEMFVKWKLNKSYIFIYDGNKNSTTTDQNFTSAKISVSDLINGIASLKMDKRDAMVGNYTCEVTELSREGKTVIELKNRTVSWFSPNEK

T3: rat CD47 (rat, UniProt P97829 19-140)
T3 chain: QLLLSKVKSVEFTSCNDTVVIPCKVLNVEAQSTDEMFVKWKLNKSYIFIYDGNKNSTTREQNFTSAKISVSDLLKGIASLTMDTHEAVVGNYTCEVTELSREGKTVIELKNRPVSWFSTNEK


Assays:
Cyno monkey CD47 [1] = target: T1, Cyno monkey CD47; assay: BLI (Octet)
mouse CD47 = target: T2, mouse CD47; assay: BLI (Octet)
rat CD47 = target: T3, rat CD47; assay: BLI (Octet)
rhCD47-his (human CD47) [2] = target: T4, rhCD47-his (human CD47) (human, UniProt Q08722 19-139); assay: BLI (Octet)
Cyno monkey CD47 [3] = target: T1, Cyno monkey CD47; assay: BLI (Octet)
rhCD47-his (human CD47) [4] = target: T4, rhCD47-his (human CD47); assay: BLI (Octet); remark: listed apart in the source
[5] = target: CD47 on human CD45 negative red blood cells (human, UniProt Q08722 19-323); assay: FACS cell binding

Row | Kd (Cyno monkey CD47 [1]) [nM] | Kd (mouse CD47) [nM] | Kd (rat CD47) [nM] | Kd (rhCD47-his (human CD47) [2]) [nM] | Kd (Cyno monkey CD47 [3]) [nM] | Kd (rhCD47-his (human CD47) [4]) [nM] | EC50 [5] [nM] | Binder
1 | 0.0974 | 5.12 | 1.03 | 0.03 | 0.0974 | 0.03 | 12 | Construct 50 (SIRPα fusion polypeptide SEQ ID NO: 10 construct without the YTE mutation, i.e. with the wild type IgG4 Fc domain) (Fc fusion) EEELQIIQPDKSVLVAAGETATLRCTITSLFPVGPIQWFRGAGPGRVLIYNQRQGPFPRVTTVSDTTKRNNMDFSIRIGNITPADAGTYYCIKFRKGSPDDVEFKSGAGTELSVRAKPSAAAPPCPPCPAPEFLGGPSVFLFPPKPKDTLMISRTPEVTCVVVDVSQEDPEVQFNWYVDGVEVHNAKTKPREEQFNSTYRVVSVLTVLHQDWLNGKEYKCKVSNKGLPSSIEKTISKAKGQPREPQVYTLPPSQEEMTKNQVSLTCLVKGFYPSDIAVEWESNGQPENNYKTTPPVLDSDGSFFLYSRLTVDKSRWQEGNVFSCSVMHEALHNHYTQKSLSLSLGK
2 | 0.0211 | 1.61 | 0.681 | 0.0117 | 0.0211 | 0.0117 | 5.8 | Construct 67 (SIRPα fusion polypeptide of SEQ ID NO: 10, SIRPα domain of SEQ ID NO: 2 and IgG4 Fc domain with a YTE mutation) (Fc fusion) EEELQIIQPDKSVLVAAGETATLRCTITSLFPVGPIQWFRGAGPGRVLIYNQRQGPFPRVTTVSDTTKRNNMDFSIRIGNITPADAGTYYCIKFRKGSPDDVEFKSGAGTELSVRAKPSAAAPPCPPCPAPEFLGGPSVFLFPPKPKDTLYITREPEVTCVVVDVSQEDPEVQFNWYVDGVEVHNAKTKPREEQFNSTYRVVSVLTVLHQDWLNGKEYKCKVSNKGLPSSIEKTISKAKGQPREPQVYTLPPSQEEMTKNQVSLTCLVKGFYPSDIAVEWESNGQPENNYKTTPPVLDSDGSFFLYSRLTVDKSRWQEGNVFSCSVMHEALHNHYTQKSLSLSLGK
